According to patent US20050287136A1 (Amgen, published 2005):

Tests used:
[1] = biological target: T1, CTLA-4-IgG1 fusion protein (OM-CTLA4-IgG1, made in-house) (human); experiment: BIAcore, immobilised CTLA-4-Ig fusion, 504.5 RU
T1 construct: covalent dimer through cysteine 120 of CTLA-4; The marks for signal peptide (underline) and CTLA4 domain are lost in the text; also called CTLA-4-Ig fusion protein; human CTLA4-IgG

[2] = biological target: T1, CTLA-4-IgG1 fusion protein …; experiment: BIAcore, immobilised CTLA-4-Ig fusion, 878.7 RU
[3] = biological target: T2, CTLA-4-Ig(G4) (Repligen, Inc.) (UniProt P16410 37-161, limits assumed); experiment: competition ELISA, antibody with CTLA-4-Ig(G4) 0.3 nM on coated B7.1-Ig(G1)
T2 sequence (P16410 37-161 limits assumed): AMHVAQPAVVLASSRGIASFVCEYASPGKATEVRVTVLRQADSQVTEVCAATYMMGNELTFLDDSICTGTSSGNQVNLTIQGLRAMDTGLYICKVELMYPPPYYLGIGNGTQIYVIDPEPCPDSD

[4] = biological target: T1, CTLA-4-IgG1 fusion protein …; experiment: BIAcore, immobilised CTLA-4-Ig fusion, 457.2 RU
[5] = biological target: T2, CTLA-4-Ig(G4) (Repligen, Inc.); experiment: competition ELISA, antibody with CTLA-4-Ig(G4) 0.3 nM on coated B7.2-Ig(G1)
[6] = biological target: T1, CTLA-4-IgG1 fusion protein …; experiment: selectivity ELISA, coated CTLA-4/Ig against CD28/Ig, antibody 1 ug/ml
[7] = biological target: T1, CTLA-4-IgG1 fusion protein …; experiment: selectivity ELISA, coated CTLA-4/Ig against B7.2/Ig, antibody 1 ug/ml
[8] = biological target: T1, CTLA-4-IgG1 fusion protein …; experiment: selectivity ELISA, coated CTLA-4/Ig against CD44/Ig, antibody 1 ug/ml
[9] = biological target: T1, CTLA-4-IgG1 fusion protein …; experiment: BIAcore, immobilised CTLA-4-Ig fusion, 397.8 RU
[10] = biological target: T1, CTLA-4-IgG1 fusion protein …; experiment: selectivity ELISA, coated CTLA-4/Ig against B7.2/Ig
[11] = biological target: T1, CTLA-4-IgG1 fusion protein …; experiment: selectivity ELISA, coated CTLA-4/Ig against CD28/Ig
[12] = biological target: T1, CTLA-4-IgG1 fusion protein …; experiment: selectivity ELISA, coated CTLA-4/Ig against hIgG
[13] = biological target: T2, CTLA-4-Ig(G4) (Repligen, Inc.); experiment: competition ELISA (separate experiment), antibody with CTLA-4-Ig(G4) 0.3 nM on coated B7.2-Ig(G1)
[14] = biological target: T2, CTLA-4-Ig(G4) (Repligen, Inc.); experiment: competition ELISA (separate experiment), antibody with CTLA-4-Ig(G4) 0.3 nM on coated B7.1-Ig(G1)

T1 sequence (chain, as listed by the source): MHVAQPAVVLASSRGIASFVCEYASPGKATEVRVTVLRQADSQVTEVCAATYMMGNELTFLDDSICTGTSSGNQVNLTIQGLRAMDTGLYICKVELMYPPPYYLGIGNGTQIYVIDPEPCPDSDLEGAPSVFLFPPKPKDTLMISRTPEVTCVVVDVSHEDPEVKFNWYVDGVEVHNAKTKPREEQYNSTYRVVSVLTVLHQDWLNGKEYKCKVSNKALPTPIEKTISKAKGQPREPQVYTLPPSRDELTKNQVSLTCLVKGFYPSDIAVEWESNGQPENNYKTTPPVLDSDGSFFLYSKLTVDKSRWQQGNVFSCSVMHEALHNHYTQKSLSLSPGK

B1: 4.10.2 (antibody, human IgG2, V domains shown)
VH: QVQLVESGGGVVQPGRSLRLSCVASGFIFSSHGIHWVRQAPGKGLEWVAVIWYDGRNKDYADSVKGRFTISRDNSKNTLYLQMNSLRAEDTAVYYCARVAPLGPLDYWGQGTLVTVSS
VL: EFVLTQSPGTLSLSPGERATLSCRASQSISSNFLAWYQQKPGQAPRLLIYRPSSRATGIPDSFSGSGSGTDFTLTISRLEPEDFALYYCQQYGTSPFTFGPGTKVDIK
modifications: chain 1 pos 1: pyroglutamate from Gln (FIG. 9: NH2-Blocked, pQ), written Q
notes: Fully human IgG2 kappa; VH DP-50, VK A27; also called CT4.10.2
Q: Which Ka [1] does the source give for B1 here?
A: Its Ka is 2.2e+09 M⁻¹.

Q: What about the Kd [1] of the same binder?
A: Its Kd is 0.455 nM.

Q: And the koff [1]?
A: The koff was 0.00043 s⁻¹.

Q: And the kon [1]?
A: Its kon is 940000 M⁻¹ s⁻¹.

Q: And the Ka [2]?
A: Its Ka is 3.9e+09 M⁻¹.

Q: And the Kd [2]?
A: The Kd was 0.254 nM.

Q: What about the koff [2] of the same binder?
A: The koff was 0.000253 s⁻¹.

Q: What about the kon [2] of the same binder?
A: The kon was 1e+06 M⁻¹ s⁻¹.

Q: And the IC50 [3]?
A: The IC50 was 3.39 nM.

Q: And the Ka [4]?
A: Its Ka is 1.4e+09 M⁻¹.

Q: What about the Kd [4] of the same binder?
A: The Kd was 0.721 nM.

Q: What about the koff [4] of the same binder?
A: The koff was 0.000505 s⁻¹.

Q: What about the kon [4] of the same binder?
A: The kon was 700000 M⁻¹ s⁻¹.

Q: What about the IC50 [5] of the same binder?
A: Its IC50 is 1.5 nM.

B2: 3.1.1 (antibody, human IgG2, V domains shown)
VH: QVQLVESGGGVVQPGRSLRLSCAASGFTFSSYGMHWVRQAPGKGLEWVAVIWYDGSNKYYADSVKGRFTISRDNSKNTLYLQMNSLRAEDTAVYYCARGARIITPCMDVWGQGTTVTVSS
VL: DIQMTQSPSSLSASVGDRVTITCRASQSINTYLIWYQQKPGKAPNFLISATSILQSGVPSRFRGSGSGTNFTLTINSLHPEDFATYYCQQSYSTPFTFGPGTKVDIK
modifications: chain 1 pos 1: pyroglutamate from Gln (FIG. 9: NH2-Blocked, pQ), written Q
notes: Fully human IgG2 kappa; VH DP-50, VK 012; also called CT3.1.1
Q: With B2 as the binder, how does the “selectivity ratio CTLA4/CD28” value [6] read?
A: The value was > 500 :1.

Q: And the “selectivity ratio CTLA4/B7.2” value [7]?
A: Its value is > 500 :1.

Q: What about the “selectivity ratio CTLA4/CD44” value [8] of the same binder?
A: The value was > 500 :1.

Q: What about the Ka [1] of the same binder?
A: The Ka was 5.5e+09 M⁻¹.

Q: What about the Kd [1] of the same binder?
A: Its Kd is 0.182 nM.

Q: And the koff [1]?
A: The koff was 0.000172 s⁻¹.

Q: What about the kon [1] of the same binder?
A: Its kon is 950000 M⁻¹ s⁻¹.

Q: What about the Ka [9] of the same binder?
A: The Ka was 4.4e+09 M⁻¹.

Q: And the Kd [9]?
A: The Kd was 0.228 nM.

Q: And the koff [9]?
A: The koff was 0.000207 s⁻¹.

Q: And the kon [9]?
A: The kon was 910000 M⁻¹ s⁻¹.

Q: And the Ka [2]?
A: The Ka was 1.07e+10 M⁻¹.

Q: And the Kd [2]?
A: Its Kd is 0.093 nM.

Q: And the koff [2]?
A: Its koff is 9.6e-05 s⁻¹.

Q: What about the kon [2] of the same binder?
A: Its kon is 1.04e+06 M⁻¹ s⁻¹.

Q: What about the IC50 [3] of the same binder?
A: The IC50 was 0.63 nM.

Q: And the Ka [4]?
A: The Ka was 4.4e+09 M⁻¹.

Q: What about the Kd [4] of the same binder?
A: Its Kd is 0.227 nM.

Q: What about the koff [4] of the same binder?
A: The koff was 0.000165 s⁻¹.

Q: What about the kon [4] of the same binder?
A: The kon was 730000 M⁻¹ s⁻¹.

Q: What about the IC50 [5] of the same binder?
A: The IC50 was 0.45 nM.

B3: 11.2.1 (antibody, human IgG2, kappa, V domains shown)
VH: QVQLVESGGGVVQPGRSLRLSCAASGFTFSSYGMHWVRQAPGKGLEWVAVIWYDGSNKYYADSVKGRFTISRDNSKNTLYLQMNSLRAEDTAVYYCARDPRGATLYYYYYGMDVWGQGTTVTVSS
VL: DIQMTQSPSSLSASVGDRVTITCRASQSINSYLDWYQQKPGKAPKLLIYAASSLQSGVPSRFSGSGSGTDFTLTISSLQPEDFATYYCQQYYSTPFTFGPGTKVEIKR
notes: also called CT11.2.1
Q: What does the source list for B3?
A: selectivity ratio CTLA4/B7.2 [10]: > 500 :1; selectivity ratio CTLA4/CD28 [11]: > 500 :1; selectivity ratio CTLA4/hIgG [12]: > 500 :1; IC50 [13]: 0.56 nM; IC50 [14]: 0.81 nM
